The results in this text go back to publication PMC12381204.

For the data set, the target named is Nucleocapsid protein (N), unmodified (SARS-CoV-2, UniProt P0DTC9 2-419). Briefly: fluorescence polarization. The note with it: protein: recombinant, tags: N-terminal 6xHis-TEV site, cleaved by TEV (Gly left before S2), chain copies: 2, label: 5'-FAM. On the technique in general: In fluorescence polarisation assays a small probe gives low polarisation when free and higher when bound to something large.

Take CUGUGUGGCUGUCACUCGGCUGCAUGCUUAGUGCACUCACGCAG (structured_RNA) [SL4 RNA]: the Kd (hairpin) came to 10.9 ± 1.4 nM.

Turning to AAAAAAAAAAAAAAAAAAAAAAAAAAAAAA (ssRNA) [polyrA 30-mer], where the note is “single strand, unstructured”, the equilibrium dissociation constant (Kd) stood at 71.7 ± 0.8 nM.

Usually Kd stands for the concentration at which binding is half-saturated.
